Data as given in patent publication US20110046043A1 (NEW YORK UNIVERSITY, published 2011).
*1 amine or outer side, *2 acyl side, *3 side chain or, on linkers, in order; H or OH if unused. Where no end group is shown, it is not given here. [ ]: non-standard residue; d: D form. Suc = O=C(CCC(=O)[*:2])[*:1]

How the values were obtained:
[1] = molecular target: HIV-1 HXB2 envelope (gp41) expressed on CHO[HIVe] (clone 7d2) cells (HIV-1 (HXB2), UniProt P04578 512-856); test: cell-based or functional assay
IZN17 (peptide 11, …) [2] = molecular target: T1, IZN17 (peptide 11, AcIKKEIEAIKKEQEAIKKKIEAIEKLLQLTVWGIKQLQARIL-NH2) (N-terminal acetyl (Ac); C-terminal amide (NH2)); test: fluorescence polarization competition, displacement of peptide 12 from IZN17
T1 construct: also called peptide IZN17; 1ZN17
T1 chain: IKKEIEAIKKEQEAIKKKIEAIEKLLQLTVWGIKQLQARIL

IZN17 (peptide 11, …) [3] = molecular target: T1, IZN17 (peptide 11, …); test: fluorescence polarization, direct saturation binding of fluorescein-labeled peptide 12 to IZN17, PBS, 25° C.
IZN17 (peptide 11, …) [4] = molecular target: T1, IZN17 (peptide 11, …); test: fluorescence polarization competitive binding assay with peptide 12 as probe
IZN17 (peptide 11, …) [5] = molecular target: T1, IZN17 (peptide 11, …); test: fluorescence polarization competition, displacement of peptide 12 from IZN17; compared with peptide 1
IZN17 (peptide 11, …) [6] = molecular target: T1, IZN17 (peptide 11, …); test: fluorescence polarization competition, displacement of peptide 12 from IZN17; value inexact because the peptide aggregates
IZN17 (peptide 11, …) [7] = molecular target: T1, IZN17 (peptide 11, …); test: fluorescence polarization competition, displacement of peptide 12 from IZN17; upper limit of the assay

Sequence of HIV-1 HXB2 envelope (gp41) expressed on CHO[HIVe] (clone 7d2) cells (P04578 512-856): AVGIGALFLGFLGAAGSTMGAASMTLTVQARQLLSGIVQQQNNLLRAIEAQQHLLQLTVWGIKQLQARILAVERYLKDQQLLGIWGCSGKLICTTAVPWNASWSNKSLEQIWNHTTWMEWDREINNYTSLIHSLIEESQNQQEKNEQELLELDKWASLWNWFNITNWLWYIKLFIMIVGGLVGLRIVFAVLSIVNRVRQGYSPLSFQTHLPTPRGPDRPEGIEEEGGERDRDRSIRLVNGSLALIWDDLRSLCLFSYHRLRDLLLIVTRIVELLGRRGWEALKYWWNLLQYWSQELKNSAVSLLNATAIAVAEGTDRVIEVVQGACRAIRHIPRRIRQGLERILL

B1: HBS α-helix 6 (XMTWEEWDKKIEEYT) (peptide)
peptide: XMTWEEWDKKIEEYT
modifications: X at position 1 is a pentenoic acid residue; N-terminal hydrogen bond surrogate (carbon-carbon bond by ring-closing metathesis in place of an i and i+4 hydrogen bond)
notes: also called peptide 6
B1 was tested, and the “inhibition of gp41-mediated cell-cell fusion (syncytium formation, β-galactosidase activity)” value [1] was greater than 200 and the binding result (IZN17 (peptide 11, …) [2]) was “binds”.

B2: Fluorescein-labeled peptide 12 (suc-MTWMEWDREINNYTC^Flu) (peptide)
peptide: Suc-MTWMEWDREINNYTC(fluorescein)-NH2
notes: also called fluorescent probe 12; fluorescein-labeled C-peptide derivative
Work on B2 yielded a Kd (IZN17 (peptide 11, …) [3]) of 24 µM.

B3: HBS α-helix 4 (XAAAWEEWDKKI) (peptide)
peptide: XAAAWEEWDKKI
modifications: X at position 1 is a pentenoic acid residue; N-terminal hydrogen bond surrogate (carbon-carbon bond by ring-closing metathesis in place of an i and i+4 hydrogen bond)
notes: Trp/Trp/Ile motif lies outside of the constraint; also called peptide 4
B3 was tested, and the “inhibition of gp41-mediated cell-cell fusion (syncytium formation, β-galactosidase activity)” value [1] was greater than 200 and the binding result (IZN17 (peptide 11, …) [4]) was “no binding”.

B4: Peptide 10 (AcMTWEEWDKKIEEYTKKI-NH2) (peptide)
peptide: Ac-MTWEEWDKKIEEYTKKI-NH2
notes: Unconstrained counterpart of HBS α-helix 9; also called unconstrained peptide 10
B4: binds (IZN17 (peptide 11, …) [2]).

B5: HBS α-helix 5 (XWAAWDREINNYT) (peptide)
peptide: XWAAWDREINNYT
modifications: X at position 1 is a pentenoic acid residue; N-terminal hydrogen bond surrogate (carbon-carbon bond by ring-closing metathesis in place of an i and i+4 hydrogen bond)
notes: Similar to 1 and 2 but missing N-terminal Met-626 and Thr-627; also called peptide 5
With B5 the “inhibition of gp41-mediated cell-cell fusion (syncytium formation, β-galactosidase activity)” value [1] was greater than 200 and the binding result (IZN17 (peptide 11, …) [4]) was “no binding”.

B6: HBS α-helix 7 (XEMAWEEWDKKIEEYT) (peptide)
peptide: XEMAWEEWDKKIEEYT
modifications: X at position 1 is a pentenoic acid residue; N-terminal hydrogen bond surrogate (carbon-carbon bond by ring-closing metathesis in place of an i and i+4 hydrogen bond)
notes: Thr-627 replaced with alanine; a glutamic acid added at the N-terminus; also called peptide 7
B6 was tested, and the “inhibition of gp41-mediated cell-cell fusion (syncytium formation, β-galactosidase activity)” value [1] was greater than 200 and the “fold lower affinity than HBS α-helix 6” value (IZN17 (peptide 11, …) [2]) was 20 fold.

B7: HBS α-helix 2 (XMTWMEWDREINNYT) (peptide)
peptide: [Pentenoic acid]MTWMEWDREINNYT
modifications: staple (positions not given here); not fully specified (C-terminus, bridges)
notes: HBS-constrained form of peptide 1; made on Rink amide resin; also called peptide 2
For B7, the “inhibition of gp41-mediated cell-cell fusion (syncytium formation, β-galactosidase activity)” value [1] was greater than 200 and the binding result (IZN17 (peptide 11, …) [5]) was “binds”.

B8: Peptide 1 (AcMTWMEWDREINNYT-NH2), 14-residue C-peptide derived from gp41 (peptide)
peptide: Ac-MTWMEWDREINNYT-NH2
notes: Unconstrained parent peptide; also called unconstrained C-peptide
B8 was tested, and the Kd (IZN17 (peptide 11, …) [6]) was 37 µM.

B9: HBS α-helix 8 (XNEMTWEEWDKKIEEYT) (peptide)
peptide: XNEMTWEEWDKKIEEYT
modifications: X at position 1 is a pentenoic acid residue; N-terminal hydrogen bond surrogate (carbon-carbon bond by ring-closing metathesis in place of an i and i+4 hydrogen bond)
notes: also called peptide 8
For B9, the “inhibition of gp41-mediated cell-cell fusion (syncytium formation, β-galactosidase activity)” value [1] was greater than 200 and the Kd (IZN17 (peptide 11, …) [7]) was less than 5 µM.

B10: HBS α-helix 3 (XWAAWDKKI) (peptide)
peptide: XWAAWDKKI
modifications: X at position 1 is a pentenoic acid residue; N-terminal hydrogen bond surrogate (carbon-carbon bond by ring-closing metathesis in place of an i and i+4 hydrogen bond)
notes: Shortest designed peptide with the Trp/Trp/Ile motif; also called peptide 3
In the case of B10, the “inhibition of gp41-mediated cell-cell fusion (syncytium formation, β-galactosidase activity)” value [1] is reported as greater than 200 and the binding result (IZN17 (peptide 11, …) [4]) is reported as “no binding”.

B11: HBS α-helix 9 (XMTWEEWDKKIEEYTKKI) (peptide)
peptide: XMTWEEWDKKIEEYTKKI
modifications: X at position 1 is a pentenoic acid residue; internally-constrained α-helical region (hydrogen bond surrogate, carbon-carbon bond by ring-closing metathesis) spanning residues 1 through 4 of SEQ ID NO: 9
notes: also called peptide 9
For B11, the “inhibition of gp41-mediated cell-cell fusion (syncytium formation, β-galactosidase activity), EC50” value [1] was 43 µM and the Kd (IZN17 (peptide 11, …) [7]) was less than 5 µM.
